Measured values published in the domain aggregation screens of Martell et al. (2025).

Assay: soluble fraction after stress (log2 fold change); higher = more stays soluble; pooled small domains, quantitative proteomics
Conditions: stress: 50 degC
Procedure, shortened: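 Each library was heated to 50°C as a stress step. The libraries, made up of small protein domains, were pooled and analysed at high throughput by quantitative proteomics. The reported value is the base-two logarithm of the fold change in each protein's soluble amount after stress, taken as a measure of aggregation propensity. The higher the value, the more protein stays in solution.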

| Sequence | soluble fraction (log2) |
| --- | --- |
| HMPQISQDDLMEAGLIVGKEAKQRRIKLGEILGIGYVNAKQLPKRLQLFQVAKSDFEQAVQQIDG | -0.0431 |
| HMPQKSDLTMEEYNKLGLAGGSGSRKLREQVGIRLSVGYGNSKQFYNRLHTFGISLDELKTAVEEVKNG | -0.117 |
| HMPQNVSVPDVTNMTQAEAESKLKEKNLAVGNIIPELSTTVEKDKVTRTNPESGSNVRKNSKVDIYVSQG | 0.0455 |
| HMPQPDVIEVRQGIVTGMRPDRRTGWLRDEEDAAGEPKSFSIDVITPKGRTPGKGAVVTYTLTNGKITEVK | -0.0415 |
| HMPRELKVRDVSHQHAGHAGWREGGETHFEVDMKADVFAGTSRVAAHRMVNKVLANELASRVHALQLNLS | 0.0371 |
| HMPRENLAYTLIMDGIVQHKNLPRASVTEAWLKQELQKAGINDFRQVLIAGIDSKGQLYFQPKQK | 0.528 |
| HMPRPLVAPMPGLIVRVTAVVGDSVDAGQGLVVMEAMKMENELRTTTAGVVKTVHVQPGVAVEKGALLIEF | -0.893 |
| HMPRTEILMVDEEMEGERLDAFVAEQLDELSRSLVKTLIENGEIRVDGKQQKPSYRLKAGEEIIVEIPA | 0.208 |
| HMPSDTNLIGKTGIAYTTLRPGGTALIDDRKVDVVADSEYIEKDKKIKVIRVEGIKVVVTAVK | 0.091 |
| HMPSGRIRWFDAKKGYGFIAGDDGKDVFLPQTALPQGVRNPRKGAKVEYSVIEGNRGQVAMGVTMV | -0.0368 |
| HMPSHALFWTLLKEVPGYDPHYKDVIKEGIVHEHSGGRTTSLSEMYTKYPREYSLMIEAMKG | -0.487 |
| HMPSKTFYNLSQEKQQKIIDASEKEFSNNLYQDVSLNQIIKNSNISRGSFYMYFTDKEDLYFYLLNEY | 0.275 |
| HMPSLGADIRALRKSRKMTLVALADALGRSVGWLSQVERDKSHATIADLGRMAEVLDVSISSFL | -0.27 |
| HMPSLSAILHDARVAAGLSMRQASAASGLSIGFISMLEQGKVQDISLQRLGRLVTAYDLEPLDVIEAAG | -1.55 |
| HMPSSAYGPYKNVFLSNSELTKLKNELPTSWEHYINRLSEYMRSTGRQYQSHAATILRWAATDRNS | -0.139 |
| HMPSSFLVKVTADALNIRSGPGVANRITGTIKDKGTYTIVDTKDDWGKLKSGVGWIHLGYTKRLD | -0.33 |
| HMPSSQQVMRRLATVGPDKTLEELQRQHDAHLRKYGEFNDFRGERQQMRQEMERIKEAKQGTGPYAHLMG | 0.0233 |
| HMPTAGYMTVTPDRVKEGQQFLATLRPPYVLKADGLAAGKGVLILPELEEAQRELEEMLGGFLGELSVNR | -0.0813 |
| HMPTERLSMRRIRELLRLRFEVGLSTRLIATALGISKGAVGDYLQRAQVAGLGWPLPENLNDAALERRLFP | -0.681 |
| HMPTGRVVIPLNRLTASDVARILDEAYGRDHNFEVVKPSRLAKGIIVIGPKSEIDGIKELLAH | -0.535 |
| HMPTLLGYKHILSAWNPDTNTVFRTSYGYDGEYGSREEAMQALIKMIQEGGKATPRGIEESEVPIY | -0.126 |
| HMPTLSKVGSQGEEVRQIQTKLKNWGYLNDRVDGIYGPKTRDAVIWFQKKNGLVADGIAGPATLKAMGIFT | 0.0925 |
| HMPTMVAQINEIVQAKLPGSGLKDYTIRLVESQRDGVVVWVNGTRYLGVDEVAEPQVQALLKEAVAEWERS | -0.132 |
| HMPTQGELAILRVLWEQGPSTVRAVWEKLNSQSGTGYTTALKLMQIMAQKGLVSRDESQKTHVYRA | -1.42 |
| HMPTTRPEAEAHYETHQRYHDLQIDVEGREAFKVATGSLTLVQEFDEKDDYDLSIPTPRSPAILLTT | 0.0218 |
| HMPVFYVTGNRVNFRAGPSTGDRVIGSLSQGAAVEVLGPTDDAWINIRDSDGRVGYMSAQFLSQ | -0.069 |
| HMPVLDETVPAALDGERIDRVVALLADVSRNRAGIAIAAGSVRLDGAVVTQRSRKVRADEELVVDGLER | -0.015 |
| HMPVNEEFKRLIDKIKYEFSINQAQISERLGVKSTYLSDMINGRVPYNESMQKKIHEVFHIG | -0.0665 |
| HMPVNGEFIERIKVMVLENKAKGKKERLTKTRMHQLLQEEGYKGSYSAFTHQVRIIEEELGVNQKEAH | -0.0836 |
| HMPVSRMRARHEALARGVMGIHAGGFSAVYGYRKVWHGLIGKGWDPGEVGRDQVMNIMRGLGMQGVRR | 0.266 |
